Assay: soluble on expression in E. coli; label from the status in PepcDB or PDB records

Sequence	soluble on expression in E. coli
MHHHHHHSSGRENLYFQGNTTKHIILVRHGQYERRYKDDENSKRLTKEGCKQADITGKKLKDILNNKKVSVIYHSDMIRAKETANIISKYFPDANLINDPNLNEGTPYLPDPLPRHSKFDAQKIKEDNKRINKAYETYFYKPSGDEDEYQLVICHGNVIRYFLCRALQIPLFAWLRFSSYNCGITWLVLDDEGSVVLREFGSVSHLPFESVTYF	soluble
ARIGLYEKALPQNLTWAERLTWAKKLGFDFLEMSIDESDERLARLAWTPSQLQEFSQLMVKEDFFIHSLCLSGHRRFPLGSLNKETREKGRKILSQAIRLAHQLNIRVIQIAGYDVFYEEKTAETREFFLQGLKKGVEEAAQYGVILAVEIMDDPFMNSIQKFLEIKEQIPSPFLHVYPDLGNLSAWPENNPAVELEKGIAEIAAIHLKDTFAVTDTFEGKFREVTFGEGCVDFTGLLKTLKRLNYSGPFLIEMWNETDLNFQEKIQAAQQYLYPKLAEVGYY	not soluble
MTTMRTGSQIFMRSGQWNELWKEKNVPLRFTNPNISFDGSERTKAEIEVVDSQEKSLVTRNMQIIPWQHDIANLHLPERDSLILMPCATRTVGRRLTARNIGLADTRGNCDISWPGVMIKIYGQQAVTSARSHQKTAVLFSVRRAQVAAMILTYPWLLSEPVRVIARYSGVSVGTVSNALKIFQKAGYLAETMDGHRLVNAELFLSAWARAYPTGLGADLELLRGKAQQLPPYNLEHLGVKASESAVSDHISDGQSASLYLGEETFSPKVIKELRLVKNPAGTITLRRAFWNTIDVKEIPEAIVYADLLNSDDARLWDVAQIIKAIILKRARGDWLGDQDG	not soluble
MAHHHHHHMRSISTGSGANLQKPSWIAQLCSDAQKSEKTISCDVKVYDELSWRRRRFSFDKELWDPARMSSIVRRRLCLGNEEAEYTVIGEAFAFADREDSPVVNEPQHSCKLLWDHNSSVEKLLIQISDHFPPLLWYAVKPTLESLKRIFSEFLDVDAEHMKKNLPYYESVQNAMETSTQERLGVTLSPTSVKDRFVADMRRRDPKDLELDYPCEYSVFLGTSPHFRLVEDRMMKSNPFVFGWPLLLSDGNEHLDGTPLRMAAFRTVYSKSLLMFHTRLDLQVDHRLASSEAGEETLLDVPIFCNINYPKNTRLCGGKPLVQRFNTVMGTTYPLDTPVDILAALAKEQCVKGPNELLEELRFLTAAAERAPDEERVFRISDDQLSANRIVGQLAYTIIYVALVNYDRFIKDVFDVYKTHRSDMVRVACARGASIVGRPDLIEQLISAEREGPCKNMLRGVVTTP	not soluble
IPTKFVQKVTITKEGKKRVAPQLLTTLSA	soluble
GPGSMQQSLIPGHNNNRHLTVEEIENNIGGLAITDNKLQELFDSLDVERTGYLPIGEVKKFYKGLEHYGLEPTDAEIESEMKKFAKSDENFMSYDEFCCLMLSFAQR	not soluble
MIAITGASGQLGRLVIAQLLEKVPASDIVALVRDVNKVADLSAKGVQVKAADYNQPEALAFALQGVDKVLLISSSEVGQRAAQHRNVIEAAVKAGVKLVAYTSLLHADKSPLALAEEHRQTEALLKDSGLPHVLLRNGWYTENYAASIPAALEHGVFIGSAGEGKITSATREDFAAAAVAVLTQEGQAGKVYELAGDEPYTLVELAAEISKQSGKSIGYQNLSGAEFTAALVSAGLPDVFAQIIADSDVGASKGGLFDGGKHLSQLIGRPTTPLSAVVKATLKLEHHHHHH	not soluble
MLKGIDLTYPQLTYLPETGILYDNTYNEKTVPIISGGGSGHEPAHVGYVGSGMLAAAVTGPLFIPPKSKNILKAIRQVNSGKGVFVIIKNFEADLKEFNEAIKEARTEGIDVRYIVSHDDISVNAYNFHKRHRGVAGTILLHKILGAFAKEGGSIDEIEQLALSLSPEIYTLGVALAPVHFPHQKTSFVLAEDEVSFGIGIHGEPGYRVEKFEGSERIAIELVNKLKAEINWQKKANKNYILLVNGLGSTTLMELYSFQYDVMRLLELEGLSVKFCKVGNLMTSCDMSGISLTLCSVKDPKWLDYLNVPTGAFAWLEHHHHHH	not soluble
MNEADYLRLLTRQAEQANDFLSNARKWDRERWVCQRFLEALNVPYRQEDFAAPGEQPPDVLFKGAGFEVFFVLDEGRRLNEEWREELTRRRQAVSLRQLIRREERPQRIAAAELQARLAPTLRKKAHNYSERGIDHGELDLLAFVNLKRAVPDFNTPFPPPTEYLRQGWRSLSMVGPTFARVLFAHSGAPEFLRANLGRSILFDAGVGL	soluble
MGSDKIHHHHHHMFISDVHLGSKAAKADFLIDFLRYHDADIIYLVGDIVDGWRLRRSWHWPQSHNDVVQKLLRKARKGASITYIAGNHDEFARQFQGVHFGGIVVADRAIHETADGKRLLVIHGDQFDTVVHNQRWLAYLGDHAYDAAMIVNRVVTRLRQLLGLPYWSFSSWAKVKVKKAVNFIGSFQTVLTEEARRSHVDGVICGHIHHAAIENFDDVRYINTGDWVESCTAVVEHFDGRMEILTWAQVLPESFDEPFIPMLIEDRVGQAA	not soluble
MHGITIDSGRALDMLASMIEEAEQQYQAHMRETPHYEPASAGEGFVAYGESINSLFQLLHQRNAQRLELIKLGLEDARQRVHDLSNTDTEFAARLGAVE	not soluble
MGSDKIHHHHHHMTIQKHFPTVEMADIHFELIGGLSSQSWRIRGPGIEWLARRQSPVERKMGVDRQREFALLRQMSAVGLAPRPLLWRDGWLIVEWVPGRIATSDEFLMMLANGEVARVLSQLHRQPRSGHPLNFKILFAQHWQLMDPCRRSPALLRAHHHFQRAALPTPLALVPLHLDVHAENLLITPQGTMLIDWEYASDGDIAFELAFIVRASQMDSVAQTYFLQSYQRHRRGFSVSRLQQQMMQWFPWVDYLVLMWFEVRWQQTKNLEFLAEIPALRHRLQLG	not soluble
MQYKDENGVNEPSRRRLLKVIGALALAGSCPVAHAQKTQSAPGTLSPDARNEKQPFYGEHQAGILTPQQAAMMLVAFDVLASDKADLERLFRLLTQRFAFLTQGGAAPETPNPRLPPLDSGILGGYIAPDNLTITLSVGHSLFDERFGLAPQMPKKLQKMTRFPNDSLDAALCHGDVLLQICANTQDTVIHALRDIIKHTPDLLSVRWKREGFISDHAARSKGKETPINLLGFKDGTANPDSQNDKLMQKVVWVTADQQEPAWTIGGSYQAVRLIQFRVEFWDRTPLKEQQTIFGRDKQTGAPLGMQHEHDVPDYASDPEGKVIALDSHIRLANPRTAESESSLMLRRGYSYSLGVTNSGQLDMGLLFVCYQHDLEKGFLTVQKRLNGEALEEYVKPIGGGYFFALPGVKDANDYFGSALLRV	soluble
VTDTDLITAGESTDGKPSDAAATDPPDLNADEPAGSLATMVLPELRALANRAGVKGTSGMRKNELIAAIEEIRRQANGAPAVDRSAQEHDKGDRPPSSEAPATQGEQTPTEQIDSQSQQVRPERRSATREAGPSGSGERAGTAADDTDNRQGGQQDAKTEERGTDAGGDQGGDQQASGGQQARGDEDGEARQGRRGRRFRDRRRRGERSGDGAEAELREDDVVQPVAGILDVLDNYAFVRTSGYLPGPHDVYVSMNMVRKNGMRRGDAVTGAVRVPKEGEQPNQRQKFNPLVRLDSINGGSVEDAKKRPEFGKLTPLYPNQRLRLETSTERLTTRVIDLIMPIGKGQRALIVSPPKAGKTTILQDIANAITRNNPECHLMVVLVDERPEEVTDMQRSVKGEVIASTFDRPPSDHTSVAELAIERAKRLVEQGKDVVVLLDSITRLGRAYNNASPASGRILSGGVDSTALYPPKRFLGAARNIEEGGSLTIIATAMVETGSTGDTVIFEEFKGTGNAELKLDRKIAERRVFPAVDVNPSGTRKDELLLSPDEFAIVHKLRRVLSGLDSHQAIDLLMSQLRKTKNNYEFLVQVSKTTPGSMDSD	not soluble
MSKHVNWSGVFPAVTTQFNADFSVNLEETHTVISNLVRDGVSGLVVCGSVGENTSLTIEEKMAVTEVAKDASGGRVPVICGIAEFTSAGAAKVAKAVERVGVDGIMVMPALVYSSKPHETAEHFRSVASGTDLPVMVYNNPPIYRNDVTPDILVSLADCENIVCFKDSSGDTRRFIDVRNQVGERFILFAGLDDVVLESVAVGAQGWISGMSNVFPKEGETIFRLARAGRFAEAMPIYEWLMPILHLDARPDLVQCIKLCEQLAGRGSALTRPPRLALRGADREHVERIMAKALASRPALPDVGL	not soluble
TDPDADRLGVEIRQPDGSYLNLSGNQIGAIIAKYILEAHKTAGTLPANAALCKSIVSTELVTKIAESYGATMFNVLTGFKFIGEKIHEFETQHNYTYMFGFEESFGYLIKPFVRDKDAIQAVLIVAEIAAYYRSRGMTLADGIEEIYKQYGYFSE	not soluble
MSLIARRNPIEQLPAIAQDPDKFGVLLSAAEFRTHLVESIRQARKRIYLVALYLENDDAGREILTELYAAKQRNPGLEIHICVDWHRAQRGLIGAAESEGNAAMYRDFAQQHEHCIPVYGIPVRGREVFGVLHLKGFIIDDQVIYSGASLNNVYLQFHGRYRFDRYHTLENAELADSMVHFIQQEMLAHPAVNNLACGSKPTTKEIKSDIRQFRASLAQANYQFAKQKVNEGQVAVTPLVGLGRRRNRLNQSIIQLLASAKDEVFICTPYFNFPPSIAKEVKKALRRGVKVHIVIGDKTANDFYIAPEEPFKTIGGLPYLYELNLRRFAKANEAHIASRKLSIHLWKHENHSFHLKGIWVDKRYMLITGNNLNPRAWKLDLENAILIRDDYHHLTTKFEAEIDNILQHTQLICTYKQIEKPEHYPEKVQRLVRRIMRLKADRVLKQILEGHHHHHH	not soluble
MSLSHVFEALSTETLPVRLGGNAAMKEKVGSDSSRWAIREVGDGNLNLVFIVTGEAGAVIVKQALPYVRLVGESWPLPLKRSFFEYHALKRQGARDPGMVPEILFFDEAQAIIVMEFLTPHIILRRALIDGRELPKIGRDLGLFVARTLFRGSDLSMVTREKKADVALFSDNVELCDITENLVFSDPYFEAKLNHHTTPQLDPIVAELRADRELKVEAQRLKHLFSAKAETLCHGDLHTGSVMVTDDETRVIDPEFAFYGPISFDVGMLIANFWMSYFSQAGHETAPGARDSMRAYLLDTIDTLWETFRAEFAALWRTERKGILYQASLFEDRQDPLAAEQALNIVIDEIWHEMLGFAGIETHRRILGLAHNADFETITDPDRRASCESKALKFGRHLAVNRQRIHSLRDIRETVERLEKEILAEGHHHHHH	soluble
MSLKNITIGMVGVGRIGRMHVANMLAVAETLKERDLNIEIVLADAMPGFAEQVGADMGVKAAASVDKLIEDGVDALFIATSTAGHVDVLRKGIAAKLPMFCEKPIASDVPESLNIIREIDAAGATVQVGHQRRFDLGYQEAKRRLDAGDLGWLHSLKAVSSDAFPPPVSYCATSGGLFRDVSLHDFDIIRWLTGQDIVEVYAKGSNNGDPEIGAVGDIDTGAALLTLADGTLATAIATRYNGAGHDVRLDVMGSKDSTIVGLDEKSAFASAEEGIDFPTGESHPTFAERFADAYKNECIAFVELILGERENPCTPADAVAAAIVADAAQLSLVTGEPVKIPTVREILEGSAQPVEVRALVPSEGHHHHHH	soluble
MGSDKIHHHHHHMYIESFKQHFSAIDDHRQSAKVTYPLFDVLFGSLCAVIASSNGWFEIREYILGHHSWFKKQKMFIDGIPADDTIARIVSMIEPDSFNACFLAWMKSVHQLTNGEVIAIDGKTLRGSYNRDDRSSTIHMISAYASANKLVLGQLKAEQKSNEITAIPTLLKMLDLRGALVTIDAMGCQTAIATTIIDKGGDYLLAVKNNQGNLAKAINKAFSSHRSAGLSDDHVNIEKSHGRIENRACFVLSSAELDGDFTHWEALKSIVMVESFRAVKGKTASLEYRYYISSKVLSAEQALSATREHWGIESMHWVLDVSMNEDECQIYKNNGAENLAYLRHMSLNMLQKEPTKLSIVGKRKRCLMNPAFLEKVLIAGLCAPTK	not soluble

Source: the DeepSol protein solubility set
